From patent publication US20070059284A1 come the findings set out here.

In the test the target is Human IL-21 Receptor (human) (UniProt Q9HBE5). Nature of the test: cell-based or functional assay.

“human IL-21-saporin immunotoxin conjugate (from UniProt P20656 25-277)”: the 3H-thymidine incorporation of conjugate-treated MOLT-13 cells relative to IL-21 treated MOLT-13 cells came to 70%, the density of conjugate-treated DEL cells relative to untreated cells (3H-thymidine) turned out to be 25%, the density of conjugate-treated HuT-78 cells relative to untreated cells (3H-thymidine) stood at 33% and the density of conjugate-treated HuT-102 cells relative to untreated cells (3H-thymidine) was found to be 20%. Besides, the density of conjugate-treated YT cells relative to untreated cells (3H-thymidine) stood at 33%; the growth inhibition of IM-9 cells at the maximal conjugate concentration (250 ng/ml), Alamar Blue proliferation assay turned out to be 79%; the growth inhibition of RAMOS cells at the maximal conjugate concentration (250 ng/ml), Alamar Blue proliferation assay was found to be 65%.
